1 molecule from patent publication US6989144 can be followed below.

This assay has as its target GPVI on baboon platelets (baboon). Kind of assay: flow cytometry, washed baboon platelets; positive control. On the technique in general: In flow cytometry, cells or beads pass a laser one at a time.

B1: convulxin (Cvx) purified from the venom of Crotalus durissus terrificus (ligand)
chain 1: GLHCPSDWYYYDQHCYRIFNEEMNWEDAEWFCTKQAKGAHLVSIKSAKEADFVAWMVTQNIEESFSHVSIGLRVQNKEKQCSTKWSDGSSVSYDNLLDLYITKCSLLKKETGFRKWFVASCIGKIPFVCKFPPQC
chain 2: GFCCPSHWSSYDRYCYKVFKQEMTWADAEKFCTQQHTGSHLVSFHSTEEVDFVVKMTHQSLKSTFFWIGANNIWNKCNWQWSDGTKPEYKEWHEEFECLISRTFDNQWLSAPCSDTYSFVCKFEA
B1 came in with a Baboon fluorescence intensity of 72 and a Baboon platelets % positive of 95%.
